Sequences and labels used below:
B1: Tumor protein 63, residues 545 to 610; numbered along this chain, Q9H3D4 (parent)
chain: TDCSIVSFLARLGCSSCLDYFTTQGLTTIYQIEHYSMDDLASLKIPEQFRHAIWKGILDHRQLHEF
B2: TGF-beta-activated kinase 1 and MAP3K7-binding protein 3, residues 12 to 50; numbered along this chain, Q8N5C8 (parent)
chain: VLHDLRQRFPEIPEGVVSQCMLQNNNNLEACCRALSQES

± gives the uncertainty stated by the source.

The first data set covers variants of B1. The data set can be described thus: abundance fitness (aPCA) (normalised: wild type 0, dead -1); higher = more abundant; growth selection in yeast, the domain comes from the species named. Particulars: Homo sapiens.
As for QDCSIVSFLARLGCSSCLDYFTTQGLTTIYQIEHYSMDDLASLKIPEQFRHAIWKGILDHRQLHEF [T1Q], the abundance fitness is -0.033 ± 0.065. Regarding EDCSIVSFLARLGCSSCLDYFTTQGLTTIYQIEHYSMDDLASLKIPEQFRHAIWKGILDHRQLHEF [T1E], the abundance fitness was -0.021 ± 0.054. Still for that read-out and setting: as for FDCSIVSFLARLGCSSCLDYFTTQGLTTIYQIEHYSMDDLASLKIPEQFRHAIWKGILDHRQLHEF [T1F], the figure is -0.034 ± 0.13; as for WDCSIVSFLARLGCSSCLDYFTTQGLTTIYQIEHYSMDDLASLKIPEQFRHAIWKGILDHRQLHEF [T1W], -0.047 ± 0.05; as for ADCSIVSFLARLGCSSCLDYFTTQGLTTIYQIEHYSMDDLASLKIPEQFRHAIWKGILDHRQLHEF [T1A], -0.064 ± 0.044.

PDCSIVSFLARLGCSSCLDYFTTQGLTTIYQIEHYSMDDLASLKIPEQFRHAIWKGILDHRQLHEF [T1P]: the abundance fitness is -0.458 ± 0.16. Same read-out and setting: as for KDCSIVSFLARLGCSSCLDYFTTQGLTTIYQIEHYSMDDLASLKIPEQFRHAIWKGILDHRQLHEF [T1K], the figure is -0.122 ± 0.054; as for YDCSIVSFLARLGCSSCLDYFTTQGLTTIYQIEHYSMDDLASLKIPEQFRHAIWKGILDHRQLHEF [T1Y], -0.074 ± 0.046. The same measure, in the same setting: the figure for RDCSIVSFLARLGCSSCLDYFTTQGLTTIYQIEHYSMDDLASLKIPEQFRHAIWKGILDHRQLHEF [T1R] is -0.199 ± 0.026; for HDCSIVSFLARLGCSSCLDYFTTQGLTTIYQIEHYSMDDLASLKIPEQFRHAIWKGILDHRQLHEF [T1H] it is -0.361 ± 0.15; for CDCSIVSFLARLGCSSCLDYFTTQGLTTIYQIEHYSMDDLASLKIPEQFRHAIWKGILDHRQLHEF [T1C] it is -0.063 ± 0.033. Still for that read-out and setting: as for NDCSIVSFLARLGCSSCLDYFTTQGLTTIYQIEHYSMDDLASLKIPEQFRHAIWKGILDHRQLHEF [T1N], the figure is -0.04 ± 0.064; as for IDCSIVSFLARLGCSSCLDYFTTQGLTTIYQIEHYSMDDLASLKIPEQFRHAIWKGILDHRQLHEF [T1I], -0.006 ± 0.041.

As for SDCSIVSFLARLGCSSCLDYFTTQGLTTIYQIEHYSMDDLASLKIPEQFRHAIWKGILDHRQLHEF [T1S], the abundance fitness is -0.047 ± 0.027. The same measure, in the same setting: as for VDCSIVSFLARLGCSSCLDYFTTQGLTTIYQIEHYSMDDLASLKIPEQFRHAIWKGILDHRQLHEF [T1V], the figure is -0.058 ± 0.042. The same measure, in the same setting: as for DDCSIVSFLARLGCSSCLDYFTTQGLTTIYQIEHYSMDDLASLKIPEQFRHAIWKGILDHRQLHEF [T1D], the figure is -0.039 ± 0.038; as for MDCSIVSFLARLGCSSCLDYFTTQGLTTIYQIEHYSMDDLASLKIPEQFRHAIWKGILDHRQLHEF [T1M], -0.041 ± 0.043. Same read-out and setting: the figure for GDCSIVSFLARLGCSSCLDYFTTQGLTTIYQIEHYSMDDLASLKIPEQFRHAIWKGILDHRQLHEF [T1G] is -0.027 ± 0.029; for TCCSIVSFLARLGCSSCLDYFTTQGLTTIYQIEHYSMDDLASLKIPEQFRHAIWKGILDHRQLHEF [D2C] it is -0.19 ± 0.042. Turning to TQCSIVSFLARLGCSSCLDYFTTQGLTTIYQIEHYSMDDLASLKIPEQFRHAIWKGILDHRQLHEF [D2Q], the abundance fitness was -0.127 ± 0.047. The same measure, in the same setting: the figure for TFCSIVSFLARLGCSSCLDYFTTQGLTTIYQIEHYSMDDLASLKIPEQFRHAIWKGILDHRQLHEF [D2F] is -0.184 ± 0.088; for TLCSIVSFLARLGCSSCLDYFTTQGLTTIYQIEHYSMDDLASLKIPEQFRHAIWKGILDHRQLHEF [D2L] it is -0.338 ± 0.026; for TNCSIVSFLARLGCSSCLDYFTTQGLTTIYQIEHYSMDDLASLKIPEQFRHAIWKGILDHRQLHEF [D2N] it is -0.053 ± 0.03. On to TACSIVSFLARLGCSSCLDYFTTQGLTTIYQIEHYSMDDLASLKIPEQFRHAIWKGILDHRQLHEF [D2A], for which the abundance fitness was -0.147 ± 0.025. Same read-out and setting: as for THCSIVSFLARLGCSSCLDYFTTQGLTTIYQIEHYSMDDLASLKIPEQFRHAIWKGILDHRQLHEF [D2H], the figure is -0.17 ± 0.062; as for TPCSIVSFLARLGCSSCLDYFTTQGLTTIYQIEHYSMDDLASLKIPEQFRHAIWKGILDHRQLHEF [D2P], -0.132 ± 0.033; as for TTCSIVSFLARLGCSSCLDYFTTQGLTTIYQIEHYSMDDLASLKIPEQFRHAIWKGILDHRQLHEF [D2T], -0.185 ± 0.041. Take TVCSIVSFLARLGCSSCLDYFTTQGLTTIYQIEHYSMDDLASLKIPEQFRHAIWKGILDHRQLHEF [D2V]: the abundance fitness was -0.22 ± 0.024. Still for that read-out and setting: the figure for TGCSIVSFLARLGCSSCLDYFTTQGLTTIYQIEHYSMDDLASLKIPEQFRHAIWKGILDHRQLHEF [D2G] is -0.11 ± 0.022; for TWCSIVSFLARLGCSSCLDYFTTQGLTTIYQIEHYSMDDLASLKIPEQFRHAIWKGILDHRQLHEF [D2W] it is -0.275 ± 0.039; for TECSIVSFLARLGCSSCLDYFTTQGLTTIYQIEHYSMDDLASLKIPEQFRHAIWKGILDHRQLHEF [D2E] it is -0.079 ± 0.028.

On to TSCSIVSFLARLGCSSCLDYFTTQGLTTIYQIEHYSMDDLASLKIPEQFRHAIWKGILDHRQLHEF [D2S], for which the abundance fitness was -0.101 ± 0.025.

For the variant TRCSIVSFLARLGCSSCLDYFTTQGLTTIYQIEHYSMDDLASLKIPEQFRHAIWKGILDHRQLHEF [D2R], the abundance fitness was -0.202 ± 0.037. Still for that read-out and setting: as for TYCSIVSFLARLGCSSCLDYFTTQGLTTIYQIEHYSMDDLASLKIPEQFRHAIWKGILDHRQLHEF [D2Y], the figure is -0.182 ± 0.052; as for TKCSIVSFLARLGCSSCLDYFTTQGLTTIYQIEHYSMDDLASLKIPEQFRHAIWKGILDHRQLHEF [D2K], -0.099 ± 0.037; as for TDASIVSFLARLGCSSCLDYFTTQGLTTIYQIEHYSMDDLASLKIPEQFRHAIWKGILDHRQLHEF [C3A], -0.098 ± 0.021. Same read-out and setting: as for TDGSIVSFLARLGCSSCLDYFTTQGLTTIYQIEHYSMDDLASLKIPEQFRHAIWKGILDHRQLHEF [C3G], the figure is -0.069 ± 0.018; as for TDMSIVSFLARLGCSSCLDYFTTQGLTTIYQIEHYSMDDLASLKIPEQFRHAIWKGILDHRQLHEF [C3M], -0.005 ± 0.025; as for TDNSIVSFLARLGCSSCLDYFTTQGLTTIYQIEHYSMDDLASLKIPEQFRHAIWKGILDHRQLHEF [C3N], -0.021 ± 0.033. On the same count and under the same terms, as for TDISIVSFLARLGCSSCLDYFTTQGLTTIYQIEHYSMDDLASLKIPEQFRHAIWKGILDHRQLHEF [C3I], the figure is -0.029 ± 0.031; as for TDLSIVSFLARLGCSSCLDYFTTQGLTTIYQIEHYSMDDLASLKIPEQFRHAIWKGILDHRQLHEF [C3L], -0.033 ± 0.02. For the variant TDHSIVSFLARLGCSSCLDYFTTQGLTTIYQIEHYSMDDLASLKIPEQFRHAIWKGILDHRQLHEF [C3H], the abundance fitness was -0.08 ± 0.044. On the same count and under the same terms, the figure for TDQSIVSFLARLGCSSCLDYFTTQGLTTIYQIEHYSMDDLASLKIPEQFRHAIWKGILDHRQLHEF [C3Q] is -0.031 ± 0.026; for TDKSIVSFLARLGCSSCLDYFTTQGLTTIYQIEHYSMDDLASLKIPEQFRHAIWKGILDHRQLHEF [C3K] it is -0.075 ± 0.031. Turning to TDFSIVSFLARLGCSSCLDYFTTQGLTTIYQIEHYSMDDLASLKIPEQFRHAIWKGILDHRQLHEF [C3F], the abundance fitness is -0.018 ± 0.063.

TDDSIVSFLARLGCSSCLDYFTTQGLTTIYQIEHYSMDDLASLKIPEQFRHAIWKGILDHRQLHEF [C3D]: the abundance fitness was -0.043 ± 0.029. On the same count and under the same terms, as for TDRSIVSFLARLGCSSCLDYFTTQGLTTIYQIEHYSMDDLASLKIPEQFRHAIWKGILDHRQLHEF [C3R], the figure is -0.051 ± 0.018.

The next data set covers variants of B2. Described as above. To be noted: Homo sapiens.
Consider VLHDLRQRFPEIPEGVVSQCMLQNNNNLEACCRALSFES [Q37F], for which the abundance fitness was -0.384 ± 0.072. VLHDLRQRFPEIPEGVVSQCMLQNNNNLEACCRALSKES [Q37K]: the abundance fitness was 0.107 ± 0.053.

VLHDLRQRFPEIPEGVVSQCMLQNNNNLEACCRALSPES [Q37P]: the abundance fitness was -0.537 ± 0.063. The same measure, in the same setting: as for VLHDLRQRFPEIPEGVVSQCMLQNNNNLEACCRALSIES [Q37I], the figure is -0.107 ± 0.057.

Source of the values: the Human Domainome abundance scans (Beltran et al. 2025).
